Target: DNA polymerase beta (Pol β) (rat, UniProt P06766 1-335)
Test: NMR chemical shift titration

B1: 20-mer single-nucleotide gapped DNA (templating G) (dsDNA)
DNA 1: CGACCGACGGCGCATCAGCC
DNA 2: GGCTGATGCGC
DNA 3: GTCGGTCG
modifications: 5'-phosphate on downstream strand
binding result: binds

Reference: PMC8259413
